Laboratory results as given in paper PMC3518626 (Current biology : CB, 2012).

Molecular target: the molecule itself

B1: Kip2-EGFP (natural protein, yeast, UniProt P28743 1-706, looked up)
chain: MIQKMSPSLRRPSTRSSSGSSNIPQSPSVRSTSSFSNLTRNSIRSTSNSGSQSISASSTRSNSPLRSVSAKSDPFLHPGRIRIRRSDSINNNSRKNDTYTGSITVTIRPKPRSVGTSRDHVGLKSPRYSQPRSNSHHGSNTFVRDPWFITNDKTIVHEEIGEFKFDHVFASHCTNLEVYERTSKPMIDKLLMGFNATIFAYGMTGSGKTFTMSGNEQELGLIPLSVSYLFTNIMEQSMNGDKKFDVIISYLEIYNERIYDLLESGLEESGSRISTPSRLYMSKSNSNGLGVELKIRDDSQYGVKVIGLTERRCESSEELLRWIAVGDKSRKIGETDYNARSSRSHAIVLIRLTSTNVKNGTSRSSTLSLCDLAGSERATGQQERRKEGSFINKSLLALGTVISKLSADKMNSVGSNIPSPSASGSSSSSGNATNNGTSPSNHIPYRDSKLTRLLQPALSGDSIVTTICTVDTRNDAAAETMNTLRFASRAKNVALHVSKKSIISNGNNDGDKDRTIELLRRQLEEQRRMISELKNRSNIGEPLTKSSNESTYKDIKATGNDGDPNLALMRAENRVLKYKLENCEKLLDKDVVDLQDSEIMEIVEMLPFEVGTLLETKFQGLESQIRQYRKYTQKLEDKIMALEKSGHTAMSLTGCDGTEVIELQKMLERKDKMIEALQSAKRLRDRALKPLINTQQSPHPVVDNDK
stoichiometry N: 2
